Assay in all cases: cell-based or functional assay
Test [1] addresses HIV-1 Env of isolate 94KE105 (subtype AC) (HIV-1).
Test [2] concerns the target HIV-1 Env of isolate MGRM-C-002 (HIV-1).
The target in test [3] is HIV-1 Env of pseudovirus isolate MGRM-C-023 (clade C) (HIV-1).
The target in test [4] is HIV-1 Env of pseudovirus isolate MGRM-C-017 (clade C) (HIV-1).
The target in test [5] is HIV-1 JR-CSF Env T413A (HIV-1 (isolate JR-CSF)) (UniProt P20871).
For test [6], the target named is HIV-1 Env of isolate MGRM-A-005 (pseudovirus) (HIV-1).
Test [7] has as its target HIV-1 Env of isolate MGRM-F1-017 (HIV-1).
The target of test [8] is HIV-1 Env of isolate MGRM-D-022 (pseudovirus) (HIV-1).
For test [9], the target named is HIV-1 Env of isolate MGRM-Chronic-B-001 (HIV-1).
Test [10] addresses HIV-1 Env of pseudovirus isolate MGRM-C-009 (clade C) (HIV-1).
The target in test [11] is HIV-1 Env of isolate MGRM-A-003 (pseudovirus) (HIV-1).
For test [12], the target named is HIV-1 JR-CSF Env I414A (HIV-1 (isolate JR-CSF)) (UniProt P20871).
Test [13] deals with HIV-1 JR-CSF Env N396A (HIV-1 (isolate JR-CSF)) (UniProt P20871).
The target in test [14] is HIV-1 CMU02 Env (pseudovirus) (HIV-1).
For test [15], the target named is HIV-1 IAVI-C18 envelope (Env) on pseudovirus (HIV-1).
Test [16] addresses HIV-1 Env of isolate MGRM-D-005 (clade D pseudovirus) (HIV-1).
The target in test [17] is HIV-1 Env of isolate 94KE105 (listed under clade A; pseudovirus) (HIV-1).
In test [18] the target is HIV-1 Env of isolate MGRM-A-001 (clade A pseudovirus) (HIV-1).
Test [19] deals with HIV-1 Env of isolate MGRM-A-010 (clade A pseudovirus) (HIV-1).
The target in test [20] is HIV-1 Env of isolate MGRM-Chronic-B-002, clade B (HIV-1).
For test [21], the target named is HIV-1 MGRM-AE-008 Env (pseudovirus) (HIV-1).
In test [22] the target is HIV-1 Env of isolate MGRM-A-011 (clade A pseudovirus) (HIV-1).
The target of test [23] is HIV-1 Env of pseudovirus MGRM-F1-017 (clade F) (HIV-1).
Test [24] deals with HIV-1 Env of isolate MGRM-D-029 (clade D pseudovirus) (HIV-1).
The target of test [25] is HIV-1 92TH021 Env (pseudovirus) (HIV-1).
Test [26] concerns the target HIV-1 Env of isolate MGRM-A-014 (clade A pseudovirus) (HIV-1).
The target of test [27] is HIV-1 Env of isolate PVO.4 (Acute), clade B (HIV-1).
The target in test [28] is HIV-1 Env of pseudovirus MGRM-G-016 (HIV-1).
For test [29], the target named is HIV-1 envelope glycoprotein (Env) of isolate MGRM-C-022 (HIV-1).
The target of test [30] is HIV-1 envelope glycoprotein (Env) of isolate LAVIC_18 (HIV-1).
The target of test [31] is HIV-1 Env of isolate 93RW029 (clade A pseudovirus) (HIV-1).
A further test addresses HIV-1 JRCSF Env (HIV-1) (UniProt P20871).
In test [32] the target is HIV-1 MGRM-C-026 Env (HIV-1).
In test [33] the target is HIV-1 93IN905 Env (HIV-1).

Consider 5114_A19 (PGT-128) (antibody), for which the IC50, pseudovirus neutralization in test [1] is 0.007 µg/mL; in test [3], 0.026 µg/mL; in test [4], 1.06 µg/mL; in test [10], more than 50 µg/mL. For the same substance, the IC50 (µg/mL), pseudovirus neutralization is 0.019 µg/mL in test [2]; more than 50 µg/mL in [6]; 11.7 µg/mL in [7]; more than 50 µg/mL in [8]; more than 50 µg/mL in test [9]; more than 50 µg/mL in test [11]. The values for the Fold IC50 increase relative to wild-type (pseudovirus neutralization) in test [5], in test [12] and in test [13] were 1 fold, 1.4 fold and 0.9 fold, respectively.
As a reminder, the IC50 is the midpoint of a concentration-inhibition curve. Take 4E10 (antibody): the IC50 (µg/ml), pseudovirus neutralization in [14] is 0.72 µg/mL; in test [17], 7.63 µg/mL; in [18], 15.1 µg/mL; in [19], 14.4 µg/mL; in test [20], 2.19 µg/mL; in test [21] it was 0.94 µg/mL. In addition, the IC50 (µg/ml), pseudovirus neutralization in [22] was 2.88 µg/mL; in [25], 1.17 µg/mL; in test [26], 1.74 µg/mL; in [27], 18.3 µg/mL; in test [28], 1.02 µg/mL; in test [29] it was 5.71 µg/mL. The IC50 (µg/ml), pseudovirus neutralization was more than 50 µg/mL in test [30] and 15.5 µg/mL in [31]. Further, the neutralization IC50 in [15] was more than 50 µg/mL. The IC50, pseudovirus neutralization in [16] is 35.2 µg/mL; in [24], 5.3 µg/mL. Further, in test [23], the IC50 is 4.92 µg/mL.
For the substance 1495_C14 (PGC14) (antibody), the IC50 (µg/ml), pseudovirus neutralization in [14], in [17], in [18], in [19], in [20] and in test [21] was more than 50 µg/mL in each case. Moreover, the IC50 (µg/ml), pseudovirus neutralization in test [22], in [25], in test [26], in test [27], in [28] and in test [29] was more than 50 µg/mL in each case. Also, the IC50 (µg/ml), pseudovirus neutralization was more than 50 µg/mL in [30] and 42 µg/mL in test [31]. Moreover, the neutralization IC50 in [15] was more than 50 µg/mL. Also, the IC50, pseudovirus neutralization in [16] and in test [24] was more than 50 µg/mL throughout. In test [23], the IC50 is more than 50 µg/mL.
5136_H01 (PGT-131) (antibody): the IC50, pseudovirus neutralization in [1] was 0.013 µg/mL; in [3] it was 0.143 µg/mL; in test [4], more than 50 µg/mL; in test [10], more than 50 µg/mL. Moreover, the IC50 (µg/mL), pseudovirus neutralization in test [2], in test [6], in test [7], in test [8], in [9] and in test [11] was more than 50 µg/mL throughout. Besides, the Fold IC50 increase relative to wild-type (pseudovirus neutralization) in test [5] came to 0.6 fold; in test [12], 1 fold; in test [13], 0.9 fold.
With 5345_I01 (PGT-137) (antibody), the IC50, pseudovirus neutralization in test [1] was 18.5 µg/mL; in test [3] it was 0.23 µg/mL; in test [4] it was more than 50 µg/mL; in test [10] it was more than 50 µg/mL. Besides, the IC50 (µg/mL), pseudovirus neutralization was 8.03 µg/mL in test [2]; more than 50 µg/mL in [6]; more than 50 µg/mL in test [7]; more than 50 µg/mL in [8]; more than 50 µg/mL in test [9]; more than 50 µg/mL in [11].
On to 5329_C19 (PGT-136) (antibody), for which the IC50, pseudovirus neutralization in [1] is more than 50 µg/mL; in test [3], 3.2 µg/mL; in test [4] it was more than 50 µg/mL; in test [10], more than 50 µg/mL. The IC50 (µg/mL), pseudovirus neutralization in [2], in test [6], in test [7], in [8], in test [9] and in [11] was more than 50 µg/mL each time.
For 5147_N06 (PGT-130) (antibody), the IC50, pseudovirus neutralization in test [1] was 0.004 µg/mL; with HIV-1 JRCSF Env (HIV-1) it was 0.0089 µg/mL; in test [3] it was 0.151 µg/mL; in test [32], 0.0173 µg/mL; in test [4], more than 50 µg/mL; in test [33], 0.0182 µg/mL. For the same substance, in test [10], the IC50, pseudovirus neutralization was more than 50 µg/mL. Also, the IC50 (µg/mL), pseudovirus neutralization in [2], in test [6], in [7], in test [8], in test [9] and in test [11] was more than 50 µg/mL each time. Besides, the Fold IC50 increase relative to wild-type (pseudovirus neutralization) amounted to 0.6 fold in test [5], 0.7 fold in test [12] and 1 fold in [13].
2G12 (antibody): the IC50 (µg/ml), pseudovirus neutralization in [14] was more than 50 µg/mL; in test [17] it was 7.22 µg/mL; in test [18], more than 50 µg/mL; in test [19], 17 µg/mL; in test [20], more than 50 µg/mL; in test [21], more than 50 µg/mL. Besides, the IC50 (µg/ml), pseudovirus neutralization in test [22] was more than 50 µg/mL; in test [25], more than 50 µg/mL; in test [26] it was more than 50 µg/mL; in test [27] it was 0.8 µg/mL; in [28], more than 50 µg/mL; in test [29] it was more than 50 µg/mL. Moreover, the IC50 (µg/ml), pseudovirus neutralization in [30] and in test [31] was more than 50 µg/mL in each case. Besides, the neutralization IC50 in test [15] is more than 50 µg/mL. In addition, the IC50, pseudovirus neutralization in [16] is 25.7 µg/mL; in test [24] it was more than 50 µg/mL. Besides, the IC50 in test [23] was more than 50 µg/mL.
With 5343_B08 (PGT-135) (antibody), the IC50, pseudovirus neutralization was 0.063 µg/mL in [1], 0.051 µg/mL in test [3], more than 50 µg/mL in [4] and more than 50 µg/mL in test [10]. For the same substance, the IC50 (µg/mL), pseudovirus neutralization in [2] is more than 50 µg/mL; in test [6] it was more than 50 µg/mL; in test [7], 7.79 µg/mL; in test [8], more than 50 µg/mL; in test [9] it was more than 50 µg/mL; in [11], more than 50 µg/mL. The Fold IC50 increase relative to wild-type (pseudovirus neutralization) amounted to 0.3 fold in [5], 1.2 fold in test [12] and 1 fold in test [13].

The record behind these values is patent US20240132578A1.
